# Measurements as given in the supplement of paper PMC7877785.
# ± gives the uncertainty stated by the source.
# Test: self-splicing fitness, log relative to wild type (ln ratio); higher = more splicing; Tetrahymena group I intron in knt gene, E. coli kanamycin selection, DiMSum; sequences stand for … in CUCUCU…GGAGGGAAAAGUUAUCAGGCAUGCACCUGGUAGCUAGUCUUUAAACCAAUAGAUUGCAUCGGUUUAAAAGGCAAGACCGUCAAAUUGCGGGAAAGGGGUCAACAGCCGUUCAGUACCAAGUCUCAGGGGAAACUUUGAGAUGGCCUUGCAAAGGGUAUGGUAAUAAGCUGACGGACAUGGUCCUAACCACGCAGCCAAGUCCUAAGUCAACAGAUCUUCUGUUGAUAUGGAUGCAGUUCACAGACUAAAUGUCGGUCGGGGAAGAUGUAUUCUUCUCAUAAGAUAUAGUCGGACCUCUCCUUAAUGGGAGCUAGCGGAUGAAGUGAUGCAACACUGGAGCCGCUGGGAACUAAUUUGUAUGCGAAAGUAUAUUGAUUAGUUUUGGAGUACUCGUGGUCG
# Outline: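 Pooled colonies went to amplicon sequencing on an Illumina HiSeq 2500 after six replicate transformations. The plates were LB agar with 100 μg/mL carbenicillin, 50 μM IPTG and 0.2% rhamnose, with or without 25 μg/mL kanamycin, incubated overnight at 37°C or 30°C. The E. coli BL21(DE3) library had all eight P1ex-region intron nucleotides randomised, the intron placed in the knt kanamycin-resistance gene on pET-22b(+). DiMSum fitness is the error-weighted combination of replicate fold changes, kanamycin against none, normalised to wild type.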
Sequence,self-splicing fitness (ln) (30 °C),self-splicing fitness (ln) (37 °C)
ACUUAGCAAUAUUACGGGAA,-1.99 ± 0.2,-1.65 ± 0.16
ACUUAGCAAUAUUACGGGCC,-2.42 ± 0.28,-2.35 ± 0.42
ACUUAGCAAUAUUACGGGCU,-1.74 ± 0.084,-0.866 ± 0.11
ACUUAGCAAUAUUACGUCAC,-3.8 ± 0.22,-1.91 ± 0.2
ACUUAGCAAUAUUACGUCCC,-0.637 ± 0.21,-0.072 ± 0.25
ACUUAGCAAUAUUACGUGAC,-2.05 ± 0.21,-2.54 ± 0.29
ACUUAGCAAUAUUACGUGCU,-1.9 ± 0.094,-1.06 ± 0.1
ACUUAGCAAUAUUACGUGUU,-3.22 ± 0.16,-1.5 ± 0.12
ACUUAGCAAUAUUACGUUUG,-3.01 ± 0.12,-2.09 ± 0.16
AGAAAGCAAUAUUACGACCC,0.302 ± 0.21,-0.444 ± 0.27
AGAAAGCAAUAUUACGACCG,-0.595 ± 0.15,0.0491 ± 0.17
AGAAAGCAAUAUUACGAUAU,-1.07 ± 0.096,-0.792 ± 0.11
AGAAAGCAAUAUUACGCAAA,-3.28 ± 0.26,-0.836 ± 0.13
AGAAAGCAAUAUUACGCAUC,-2.53 ± 0.34,–
AGAAAGCAAUAUUACGCCUU,-1.29 ± 0.12,-1.69 ± 0.14
AGAAAGCAAUAUUACGCUAA,-2.38 ± 0.34,-1.11 ± 0.4
AGAAAGCAAUAUUACGCUUG,-2.37 ± 0.15,-1.73 ± 0.18
AGAAAGCAAUAUUACGGACC,-0.299 ± 0.3,0.21 ± 0.3
AGAAAGCAAUAUUACGGAUA,-2.15 ± 0.15,-1.77 ± 0.15
AGAAAGCAAUAUUACGGAUC,-1.53 ± 0.13,-0.656 ± 0.17
AGAAAGCAAUAUUACGGAUG,-2.93 ± 0.14,-2.04 ± 0.14
AGAAAGCAAUAUUACGGCAC,-0.435 ± 0.087,-0.727 ± 0.13
AGAAAGCAAUAUUACGGCUU,-1.26 ± 0.072,-0.7 ± 0.089
AGAAAGCAAUAUUACGGUUC,-2.72 ± 0.12,-1.83 ± 0.13
AGAAAGCAAUAUUACGGUUG,-3.65 ± 0.17,-1.78 ± 0.16

Sequence,self-splicing fitness (ln) (30 °C),self-splicing fitness (ln) (37 °C)
AGAAAGCAAUAUUACGGUUU,-0.927 ± 0.068,-0.0576 ± 0.082
AGAAAGCAAUAUUACGUAAC,-3.26 ± 0.22,-2.47 ± 0.33
AGAAAGCAAUAUUACGUGCA,-0.717 ± 0.079,-0.292 ± 0.099
AGAAAGCAAUAUUACGUUAG,-2.91 ± 0.19,-2.69 ± 0.18
AGACAGCAAUAUUACGAAAG,-2.18 ± 0.17,-2.48 ± 0.21
AGACAGCAAUAUUACGAACG,-1.29 ± 0.1,-0.106 ± 0.12
AGACAGCAAUAUUACGAGAU,-2.88 ± 0.1,-2.85 ± 0.18
AGACAGCAAUAUUACGAGCG,-0.874 ± 0.071,-0.405 ± 0.081
AGACAGCAAUAUUACGAGUU,-2.26 ± 0.086,-1.14 ± 0.099
AGACAGCAAUAUUACGAUAA,-2.68 ± 0.16,-0.931 ± 0.15
AGACAGCAAUAUUACGAUAU,-1.93 ± 0.064,-0.802 ± 0.07
AGACAGCAAUAUUACGAUCA,-0.682 ± 0.074,0.267 ± 0.089
AGACAGCAAUAUUACGAUUU,0.0877 ± 0.068,0.119 ± 0.086
AGACAGCAAUAUUACGCAAC,-3.42 ± 0.22,-1.2 ± 0.14
AGACAGCAAUAUUACGCACC,-0.553 ± 0.13,0.279 ± 0.17
AGACAGCAAUAUUACGCAUG,-2.45 ± 0.13,-1.23 ± 0.11
AGACAGCAAUAUUACGCUAA,-2.17 ± 0.11,-0.0364 ± 0.1
AGACAGCAAUAUUACGCUGA,-2.39 ± 0.16,-1.75 ± 0.19
AGACAGCAAUAUUACGGAGU,-4.06 ± 0.16,-2.28 ± 0.13
AGACAGCAAUAUUACGGCAU,-0.544 ± 0.052,-0.211 ± 0.066
AGACAGCAAUAUUACGGCGG,-2.25 ± 0.13,-0.609 ± 0.14
AGACAGCAAUAUUACGGGAU,-1.22 ± 0.098,-1.71 ± 0.14
AGACAGCAAUAUUACGGGGG,-3.63 ± 0.26,-2.79 ± 0.23
AGACAGCAAUAUUACGGUAA,-2.04 ± 0.11,-1.37 ± 0.085
AGACAGCAAUAUUACGGUAC,-3.29 ± 0.17,-2.41 ± 0.17

Sequence,self-splicing fitness (ln) (30 °C),self-splicing fitness (ln) (37 °C)
AGACAGCAAUAUUACGGUUC,-3.34 ± 0.18,-1.05 ± 0.13
AGACAGCAAUAUUACGUAAU,-1.3 ± 0.05,-0.92 ± 0.071
AGACAGCAAUAUUACGUCUA,-1.31 ± 0.097,-0.608 ± 0.099
AGACAGCAAUAUUACGUUCA,-0.336 ± 0.056,-0.159 ± 0.086
AGACAGCAAUAUUACGUUGA,-3.58 ± 0.16,-1.77 ± 0.11
AGACAGCAAUAUUACGUUUA,-2.45 ± 0.094,-0.782 ± 0.083
AGACAGCAAUAUUACGUUUU,-3 ± 0.13,-3.77 ± 0.24
AGAGAGCAAUAUUACGAUAG,–,-0.994 ± 0.49
AGAGAGCAAUAUUACGAUCA,-1.93 ± 0.16,-1.44 ± 0.17
AGAGAGCAAUAUUACGAUGU,-2.52 ± 0.41,-2.69 ± 0.36
AGAGAGCAAUAUUACGCAAU,-3.58 ± 0.43,-2.48 ± 0.29
AGAGAGCAAUAUUACGCACC,0.805 ± 0.35,–
AGAGAGCAAUAUUACGCAUA,-3.84 ± 0.39,-2.96 ± 0.47
AGAGAGCAAUAUUACGCAUU,-3.41 ± 0.18,-2.35 ± 0.15
AGAGAGCAAUAUUACGCGAU,–,-2.82 ± 0.43
AGAGAGCAAUAUUACGCUCA,-2.44 ± 0.27,-1.11 ± 0.21
AGAGAGCAAUAUUACGCUGA,-2.75 ± 0.18,-2.94 ± 0.28
AGAGAGCAAUAUUACGGACU,-0.413 ± 0.12,-0.495 ± 0.17
AGAGAGCAAUAUUACGGCCG,-3.41 ± 0.36,-1.39 ± 0.28
AGAGAGCAAUAUUACGGGUC,–,-3.11 ± 0.48
AGAGAGCAAUAUUACGGUAA,-2.95 ± 0.31,-2.28 ± 0.33
AGAGAGCAAUAUUACGGUAU,-3.91 ± 0.37,-3.55 ± 0.29
AGAGAGCAAUAUUACGGUGA,-3.54 ± 0.38,–
AGAGAGCAAUAUUACGGUUA,-3.1 ± 0.25,-1.83 ± 0.21
AGAGAGCAAUAUUACGUAGC,-4.09 ± 0.3,-3.62 ± 0.46

Sequence,self-splicing fitness (ln) (30 °C),self-splicing fitness (ln) (37 °C)
AGAGAGCAAUAUUACGUCAA,-2.29 ± 0.5,–
AGAGAGCAAUAUUACGUCUA,-2.48 ± 0.35,-0.494 ± 0.26
AGAGAGCAAUAUUACGUGAA,-2.82 ± 0.3,-2.16 ± 0.29
AGAGAGCAAUAUUACGUGCA,-3.36 ± 0.26,-2.34 ± 0.24
AGAGAGCAAUAUUACGUUAA,-3.32 ± 0.25,-2.36 ± 0.24
AGAGAGCAAUAUUACGUUAU,-2.61 ± 0.18,-2.64 ± 0.48
AGAGAGCAAUAUUACGUUUA,–,-2.08 ± 0.33
AGAUAGCAAUAUUACGAAUG,-2.62 ± 0.13,-1.32 ± 0.11
AGAUAGCAAUAUUACGCAGC,-2.44 ± 0.22,-1.43 ± 0.4
AGAUAGCAAUAUUACGCCCG,-0.427 ± 0.23,-0.478 ± 0.24
AGAUAGCAAUAUUACGCCGU,-0.974 ± 0.11,-0.953 ± 0.12
AGAUAGCAAUAUUACGCGAC,-2.67 ± 0.29,-1.21 ± 0.39
AGAUAGCAAUAUUACGGUCA,-0.325 ± 0.08,0.317 ± 0.11
AGAUAGCAAUAUUACGGUGA,-1.9 ± 0.2,-0.858 ± 0.17
AGAUAGCAAUAUUACGGUUA,-0.766 ± 0.11,-0.936 ± 0.1
AGAUAGCAAUAUUACGUCCU,0.545 ± 0.095,0.159 ± 0.1
AGAUAGCAAUAUUACGUGGU,-3.03 ± 0.11,-2.27 ± 0.15
AGAUAGCAAUAUUACGUUUG,-3.06 ± 0.23,-1.21 ± 0.17
AGCAAGCAAUAUUACGAACU,-0.731 ± 0.12,-0.593 ± 0.14
AGCAAGCAAUAUUACGAAGG,-4.66 ± 0.36,-1.54 ± 0.22
AGCAAGCAAUAUUACGACUA,-0.478 ± 0.11,-0.326 ± 0.13
AGCAAGCAAUAUUACGAUGC,-2.08 ± 0.11,-1.71 ± 0.14
